Our source for the stoichiometry N values is paper PMC6048237.

Values joined by “and” are separate entries in the source; they are usually repeats but may differ in a detail not shown here. Equal values may be shown once.

This test deals with Trypanosoma evansi mevalonate kinase (TeMVK), N-terminal 6xHis-tagged recombinant (Trypanosoma evansi). In words: SEC; Superdex 200 16/600, 30 mM glycine pH 9.0, 150 mM NaCl; TeMVK expressed in autoinduction medium ZYM5052; sizes estimated from calibration with gel filtration standard.

On to “Trypanosoma evansi mevalonate kinase (TeMVK), N-terminal 6xHis-tagged recombinant (enzyme)”, for which the stoichiometry N (usually the number of molecules, sites or subunits per partner or assembly) is 2 and 4.
